Test results from US20130115224A1 (published 2013).
Where a chain is given by its changes, count along the chain named.

B1: 3C-H2 / LOE7 scFv (scFv, V domains shown)
VH: QVQLVESGGGLVQPGRSLRLSCAASGFTFDDYAMHWVRQAPGKGLDWVSAITWNSGHIDYADSVEGRFAVSRDNAKNALYLQMNSLRPEDTAVYYCAKASYLSTASSLEYWGQGTLVTVSS
VL: not shown
B2: 2SD4 VH / VLLOE5 scFv (scFv, V domains shown)
VH: B1 VH with A97T, A105S, E109D, Y110N
VL: DIQMTQSPSSLSASIGDRVTITCRASQGIRNYLAWYQQKPGKAPKLLIYAASTLQSGVPSRFSGSGSGTDFTLTISSLQPEDVATYYCQKYNSAPYYFGQGTKVEIK

Key:
recombinant human TNFα [1] = biological target: T1, recombinant human TNFα (human, UniProt P01375 77-233, biotinylated (2:1 molar ratio of biotin to rhTNFα) in the SPR assays; 125I-labeled in the receptor binding assays); test: SPR (BIAcore), scFv over biotinylated rhTNFα
T1 construct: also called rhTNFα; rhTNF

recombinant human TNFα [2] = biological target: T1, recombinant human TNFα; test: SPR (BIAcore), scFv over biotinylated rhTNFα; remark: listed apart in the source

T1 sequence (P01375 77-233 limits assumed): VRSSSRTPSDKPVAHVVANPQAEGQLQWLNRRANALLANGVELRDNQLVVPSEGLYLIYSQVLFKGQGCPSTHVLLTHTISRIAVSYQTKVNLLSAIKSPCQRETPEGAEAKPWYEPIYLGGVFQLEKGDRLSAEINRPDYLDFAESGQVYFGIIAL

Binder	fold faster off rate than with the D2E7 VH CDR3 (recombinant human TNFα [1]) [fold]	koff (recombinant human TNFα [2]) [s⁻¹]
B1	3	0.0015
B2		0.0116
